Measured values as given in paper PMC11673460.

Target: cobalamin binding domain of CarH from Thermus thermophilus (Thermus thermophilus)

aggregation ratio (area of bacteria in aggregates/total area occupied by all bacteria) of E. coli MG1655 displaying CarH (CarH‐eCPX), with AdoB12Cy5, in the dark: 50%
aggregation ratio of CarH‐displaying E. coli with AdoB12Cy5 under green or red light (aggregates not separated by far‐red light): < 20%
aggregation ratio of CarH‐displaying E. coli with AdoB12Cy7.5 under green, red or far‐red light: < 20%
aggregation ratio of CarH‐displaying E. coli with AdoB12 under green light (aggregates stable under red and far‐red light): < 20%
aggregation ratio of E. coli MG1655 displaying CarH (CarH‐eCPX), with AdoB12, in the dark: 50%
aggregation ratio of E. coli MG1655 displaying CarH (CarH‐eCPX), with AdoB12Cy7.5, in the dark: 50%
Substance: cobalamin binding domain of CarH from Thermus thermophilus (domain or fragment)
